The source of these data is patent publication US20210330742.

The data set concerns the target CDK4 (UniProt P11802).

Sequence of CDK4 (P11802 2-303): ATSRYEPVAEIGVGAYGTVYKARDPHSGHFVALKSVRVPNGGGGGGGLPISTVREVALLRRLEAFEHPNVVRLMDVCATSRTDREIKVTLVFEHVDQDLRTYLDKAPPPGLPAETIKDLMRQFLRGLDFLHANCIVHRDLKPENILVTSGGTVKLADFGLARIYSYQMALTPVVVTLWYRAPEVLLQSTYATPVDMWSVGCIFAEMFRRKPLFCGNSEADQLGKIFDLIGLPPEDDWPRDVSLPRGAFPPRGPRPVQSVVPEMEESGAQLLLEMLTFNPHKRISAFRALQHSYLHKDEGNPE

For JNK, the “phosphorylation of CDK4 at Thr-172 (immunoblot)” value is recorded as “JNK phosphorylated T172 of CDK4 2 hours after serum stimulation”.
